± gives the standard deviation of the averaged measurements.
Experiment: total protein half-life in vivo (active degradation + dilution); higher = more stable protein
[1] = E. coli NCM3722 delta-clpP delta-lon delta-hslV, growth: N-lim chemostat, doubling time 6 h
[2] = E. coli NCM3722 delta-clpP, growth: N-lim chemostat, doubling time 6 h
[3] = E. coli NCM3722 delta-hslV, growth: N-lim chemostat, doubling time 6 h
[4] = E. coli NCM3722 delta-lon, growth: N-lim chemostat, doubling time 6 h
[5] = E. coli NCM3722 delta-smpB, growth: N-lim chemostat, doubling time 6 h
[6] = wild type E. coli NCM3722, growth: C-lim chemostat, doubling time 3 h
[7] = wild type E. coli NCM3722, growth: C-lim chemostat, doubling time 6 h
[8] = wild type E. coli NCM3722, growth: C-lim chemostat, doubling time 12 h
[9] = wild type E. coli NCM3722, growth: N-lim chemostat, doubling time 6 h
[10] = wild type E. coli NCM3722, growth: N-lim chemostat, doubling time 12 h
[11] = wild type E. coli NCM3722, growth: P-lim chemostat, doubling time 6 h
[12] = wild type E. coli NCM3722, growth: P-lim chemostat, doubling time 12 h

| Sequence | total protein half-life in vivo [1] | total protein half-life in vivo [2] | total protein half-life in vivo [3] | total protein half-life in vivo [4] | total protein half-life in vivo [5] | total protein half-life in vivo [6] | total protein half-life in vivo [7] | total protein half-life in vivo [8] | total protein half-life in vivo [9] | total protein half-life in vivo [10] | total protein half-life in vivo [11] | total protein half-life in vivo [12] |
| --- | --- | --- | --- | --- | --- | --- | --- | --- | --- | --- | --- | --- |
| MRRLPGILLLTGAALVVIAALLVSGLRIALPHLDAWRPEILNKIESATGMPVEASQLSASWQNFGPTLEAHDIRAELKDGGEFSVKRVTLALDVWQSLLHMRWQFRDLTFWQLRFRTNTPITSGGSDDSLEASHISDLFLRQFDHFDLRDSEVSFLTPSGQRAELAIPQLTWLNDPRRHRAEGLVSLSSLTGQHGVMQVRMDLRDDEGLLSNGRVWLQADDIDLKPWLGKWMQDNIALETAQFSLEGWMTIDKGDVTGGDVWLKQGGASWLGEKQTHTLSVDNLTAHITRENPGWQFSIPDTRITMDGKPWPSGALTLAWIPEQDVGGKDNKRSDELRIRASNLELAGLEGIRPLAAKLSPALGDVWRSTQPSGKINTLALDIPLQAADKTRFQASWSDLAWKQWKLLPGAEHFSGTLSGSVENGLLTASMKQAKMPYETVFRAPLEIADGQATISWLNNNKGFQLDGRNIDVKAKAVHARGGFRYLQPANDEPWLGILAGISTDDGSQAWRYFPENLMGKDLVDYLSGAIQGGEADNATLVYGGNPQLFPYKHNEGQFEVLVPLRNAKFAFQPDWPALTNLDIELDFINDGLWMKTDGVNLGGVRASNLTAVIPDYSKEKLLIDADIKGPGKAVGPYFDETPLKDSLGATLQELQLDGDVNARLHLDIPLNGELVTAKGEVTLRNNSLFIKPLDSTLKNLSGKFSFINSDLQSEPLTASWFNQPLNVDFSTKEGAKAYQVAVNLNGNWQPAKTGVLPEAVNEALSGSVAWDGKVGIDLPYHAGATYNIELNGDLKNVSSHLPSPLAKPAGEPLAVNVKVDGNLNSFELTGQAGADNHFNSRWLLGQKLTLDRAIWAADSKTLPPLPEQSGVELNMPPMNGAEWLALFQKGAAESVGGAASFPQHITLRTPMLSLGNQQWNNLSIVSQPTANGTLVEAQGREINATLAMRNNAPWLANIKYLYYNPSVAKTRGDSTPSSPFPTTERINFRGWPDAQIRCTECWFWGQKFGRIDSDITISGDTLTLTNGLIDTGFSRLTADGEWVNNPGNERTSLKGKLRGQKIDAAAEFFGVTTPIRQSSFNVDYDLHWRKAPWQPDEATLNGIIHTQLGKGEITEINTGHAGQLLRLLSVDALMRKLRFDFRDTFGEGFYFDSIRSTAWIKDGVMHTDDTLVDGLEADIAMKGSVNLVRRDLNMEAVVAPEISATVGVAAAFAVNPIVGAAVFAASKVLGPLWSKVSILRYHISGPLDDPQINEVLRQPRKEKAQ | 6.25 ± 0.48 h | 6.38 ± 0.3 h | 6.18 ± 0.12 h | 6.21 ± 0.18 h | 5.844 ± 0.013 h | 3.185 ± 0.015 h | 6.62 ± 0.46 h | 12.6 ± 0.73 h | 6.11 ± 0.16 h | 12.2 ± 1.2 h | 5.67 ± 0.26 h | 9.67 ± 1.6 h |
| MRRVNILCSFALLFASHTSLAVTYPLPPEGSRLVGQSFTVTVPDHNTQPLETFAAQYGQGLSNMLEANPGADVFLPKSGSQLTIPQQLILPDTVRKGIVVNVAEMRLYYYPPDSNTVEVFPIGIGQAGRETPRNWVTTVERKQEAPTWTPTPNTRREYAKRGESLPAFVPAGPDNPMGLYAIYIGRLYAIHGTNANFGIGLRVSQGCIRLRNDDIKYLFDNVPVGTRVQIIDQPVKYTTEPDGSNWLEVHEPLSRNRAEYESDRKVPLPVTPSLRAFINGQEVDVNRANAALQRRSGMPVQISSGSRQMF | 5.58 ± 1.1 h | 6.17 ± 0.48 h | 5.997 ± 0.037 h | 6.9 ± 1 h | 5.83 ± 0.5 h | 3.35 ± 0.46 h | 5.64 ± 0.53 h | 10.128 ± 0.0088 h | 6.43 ± 0.88 h | 11.4 ± 0.34 h | 5.24 ± 0.69 h | 11.3 ± 0.51 h |
| MRSAQVYRWQIPMDAGVVLRDRRLKTRDGLYVCLREGEREGWGEISPLPGFSQETWEEAQSVLLAWVNNWLAGDCELPQMPSVAFGVSCALAELTDTLPQAANYRAAPLCNGDPDDLILKLADMPGEKVAKVKVGLYEAVRDGMVVNLLLEAIPDLHLRLDANRAWTPLKGQQFAKYVNPDYRDRIAFLEEPCKTRDDSRAFARETGIAIAWDESLREPDFAFVAEEGVRAVVIKPTLTGSLEKVREQVQAAHALGLTAVISSSIESSLGLTQLARIAAWLTPDTIPGLDTLDLMQAQQVRRWPGSTLPVVEVDALERLL |  |  | 3.779 ± 0.0063 h | 4.33 ± 0.7 h | 3.7 ± 0.25 h | 3.25 ± 0.19 h | 5.71 ± 0.44 h | 13.2 h | 3.88 ± 0.14 h | 6.68 ± 0.4 h | 5.7 ± 0.073 h | 11.5 ± 0.8 h |
| MRSFSQLWPTLKRLLAYGSPWRKPLGIAVLMMWVAAAAEVSGPLLISYFIDNMVAKNNLPLKVVAGLAAAYVGLQLFAAGLHYAQSLLFNRAAVGVVQQLRTDVMDAALRQPLSEFDTQPVGQVISRVTNDTEVIRDLYVTVVATVLRSAALVGAMLVAMFSLDWRMALVAIMIFPVVLVVMVIYQRYSTPIVRRVRAYLADINDGFNEIINGMSVIQQFRQQARFGERMGEASRSHYMARMQTLRLDGFLLRPLLSLFSSLILCGLLMLFGFSASGTIEVGVLYAFISYLGRLNEPLIELTTQQAMLQQAVVAGERVFELMDGPRQQYGNDDRPLQSGTIEVDNVSFAYRDDNLVLKNINLSVPSRNFVALVGHTGSGKSTLASLLMGYYPLTEGEIRLDGRPLSSLSHSALRQGVAMVQQDPVVLADTFLANVTLGRDISEERVWQALETVQLAELARSMSDGIYTPLGEQGNNLSVGQKQLLALARVLVETPQILILDEATASIDSGTEQAIQHALAAVREHTTLVVIAHRLSTIVDADTILVLHRGQAVEQGTHQQLLAAQGRYWQMYQLQLAGEELAASVREEESLSA [P0AAG5] | 6.44 ± 0.43 h | 6 ± 0.12 h | 4.33 ± 0.16 h | 3.97 ± 0.13 h | 4.31 ± 0.43 h | 2.85 h | 4.47 ± 0.42 h | 8.8 ± 2.3 h | 4.589 ± 0.038 h | 6.71 ± 0.085 h | 5.09 ± 0.38 h | 10.3 ± 0.7 h |
| MRSIARRTAVGAALLLVMPVAVWISGWRWQPGEQSWLLKAAFWVTETVTQPWGVITHLILFGWFLWCLRFRIKAAFVLFAILAAAILVGQGVKSWIKDKVQEPRPFVIWLEKTHHIPVDEFYTLKRAERGNLVKEQLAEEKNIPQYLRSHWQKETGFAFPSGHTMFAASWALLAVGLLWPRRRTLTIAILLVWATGVMGSRLLLGMHWPRDLVVATLISWALVAVATWLAQRICGPLTPPAEENREIAQREQES [P0A924] | 6.18 ± 0.47 h | 7.12 ± 0.17 h | 7.17 h | 5.52 ± 0.8 h | 5.95 ± 0.56 h |  | 6.009 ± 0.045 h | 14.4 ± 1.7 h | 6.36 ± 0.65 h | 11.9 ± 0.65 h | 6.14 ± 0.54 h | 10.7 ± 2 h |
| MRSSAKQEELVKAFKALLKEEKFSSQGEIVAALQEQGFDNINQSKVSRMLTKFGAVRTRNAKMEMVYCLPAELGVPTTSSPLKNLVLDIDYNDAVVVIHTSPGAAQLIARLLDSLGKAEGILGTIAGDDTIFTTPANGFTVKDLYEAILELFDQEL [P0A6D0] | 5.74 h | 5.76 ± 0.36 h | 5.36 ± 0.18 h | 6.26 h | 6.3 ± 1.1 h | 3.07 ± 0.25 h | 5.2 ± 1 h | 10.7 ± 1.8 h | 5.26 ± 0.67 h | 10.5 h | 4.85 ± 0.56 h | 11.8 ± 0.96 h |
| MRTFSGKRSTLALAIAGVTAMSGFMAMPEARAEGFIDDSTLTGGIYYWQRERDRKDVTDGDKYKTNLSHSTWNANLDFQSGYAADMFGLDIAAFTAIEMAENGDSSHPNEIAFSKSNKAYDEDWSGDKSGISLYKAAAKFKYGPVWARAGYIQPTGQTLLAPHWSFMPGTYQGAEAGANFDYGDAGALSFSYMWTNEYKAPWHLEMDEFYQNDKTTKVDYLHSFGAKYDFKNNFVLEAAFGQAEGYIDQYFAKASYKFDIAGSPLTTSYQFYGTRDKVDDRSVNDLYDGTAWLQALTFGYRAADVVDLRLEGTWVKADGQQGYFLQRMTPTYASSNGRLDIWWDNRSDFNANGEKAVFFGAMYDLKNWNLPGFAIGASYVYAWDAKPATWQSNPDAYYDKNRTIEESAYSLDAVYTIQDGRAKGTMFKLHFTEYDNHSDIPSWGGGYGNIFQDERDVKFMVIAPFTIF |  |  |  |  |  | 1.45 h | 2.07 h | 2.36 h |  |  |  |  |

From the supplement of paper PMC11246515
